Reference: US20100183588A1 (IVS INSTITUT DES VAISSEAUX ET DU SANG, published 2010)

Molecular target: UNC5H4 receptor of the pericytes and smooth muscle cells
Assay: cell-based or functional assay

VSM migration: chemotactic activity relative to non-mutated netrin 4: 3000 fold over non-mutated netrin 4
VSM proliferation: mitogenic activity relative to non-mutated netrin 4: 1000 fold over non-mutated netrin 4
B1: mutated netrin 4 (SEQ ID NO: 522), recombinant protein (ligand)
chain: LSGVAGVSSRCEKACNPRMGNLALGRKLWADTTCGQNATELYCFYSENTDLTCRQPKCDKCNAAYPHLAHLPSAMADSSFRFPRTWWQSAEDVHREKIQLDLEAEFYFTHLIVMFKSPRPAAMVLDRSQDFGKTWKPYKYFATNCSATFGLEDDVVKKGAICTPKYSSPFPCTGGEVIFKALSPPYDTENPYSAKVQEQLKITNLRVQLLKRQSYPCQRNDLNEEPQHFTHYAIYDFIVKGSCFCNGHADQCIPVHGFRPVKAPGTFHMVHGKCMCKHNTAGSHCQHCAPLYNDRPWEAADGKTGAPNECRTRKCNGHADTCHFDVNVWEASGSRSGGVCDDCQHNTEGQYCQRCKPGFYRDLRRPFSAPDACKPCSCHPVGSAVLPANSVTFCDPSNGDCPCKPGVAGRRCDRCMVGYWGFGDYGCRPCDCAGSCDPITGDCISSHTDIDWCHEVPDFRPVHNKSEPAWEWEDAQGFSALLHSGKCECKEQTLGKAKAFCGMKYSYVLKIKILSAHDKGTHVEVNVKIKKVLKSTKLKIFRGKRTLYPESWTDRGCTCPILNPGLEYLVAGHEDIRTGKLIVNMKSFVQHWKPSLGRKVMDILKRECK
